Earlier results as cited in article PMC5757840.

Target: SNARE complex (Rattus norvegicus) (UniProt P32851)
Chain of UniProt P32851 (P32851 whole entry, chain 1 of 3): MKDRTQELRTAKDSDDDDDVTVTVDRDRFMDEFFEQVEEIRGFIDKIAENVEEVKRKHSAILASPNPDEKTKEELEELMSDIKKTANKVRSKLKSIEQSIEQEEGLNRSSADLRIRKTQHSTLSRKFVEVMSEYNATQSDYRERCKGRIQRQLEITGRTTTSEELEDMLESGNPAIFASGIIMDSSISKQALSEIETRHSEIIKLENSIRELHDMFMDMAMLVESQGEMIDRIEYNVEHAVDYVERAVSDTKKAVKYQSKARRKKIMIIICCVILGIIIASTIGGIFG
Chain of UniProt P32851 (B2RAU4 whole entry, chain 2 of 3, further chain): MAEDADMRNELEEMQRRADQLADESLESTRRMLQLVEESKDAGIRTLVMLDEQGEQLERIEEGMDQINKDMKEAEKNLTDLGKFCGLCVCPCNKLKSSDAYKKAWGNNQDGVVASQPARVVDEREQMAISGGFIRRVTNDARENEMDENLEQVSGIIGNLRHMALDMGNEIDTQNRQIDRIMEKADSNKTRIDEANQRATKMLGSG
Chain of UniProt P32851 (P63044 2-116, chain 3 of 3, further chain): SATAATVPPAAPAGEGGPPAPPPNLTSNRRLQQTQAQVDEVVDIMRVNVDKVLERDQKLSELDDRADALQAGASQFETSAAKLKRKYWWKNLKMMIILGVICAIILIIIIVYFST

Syt1 (from UniProt P21707)
Kd: 0.9 µM
